The values below come from publication PMC10238393 (2023).

Series [1] has as its target LPHN2 Lec/Olf domain (human). Briefly: ELISA; solid-phase binding assay: LPHN2 extracellular domain variants (100 nM) coated on MaxiSorp 96-well plates, 1 h room temperature, blocked with 1% BSA; 0.001-10 μM LRG1 forms added; detected with anti-LRG1 antibody and peroxidase-conjugated secondary antibody. Background: In an ELISA, binding on a coated surface is turned into a signal by an enzyme label.

Series [2] addresses T1, LPHN2 olfactomedin-like (Olf) domain (human, UniProt O95490 135-394).
T1 chain: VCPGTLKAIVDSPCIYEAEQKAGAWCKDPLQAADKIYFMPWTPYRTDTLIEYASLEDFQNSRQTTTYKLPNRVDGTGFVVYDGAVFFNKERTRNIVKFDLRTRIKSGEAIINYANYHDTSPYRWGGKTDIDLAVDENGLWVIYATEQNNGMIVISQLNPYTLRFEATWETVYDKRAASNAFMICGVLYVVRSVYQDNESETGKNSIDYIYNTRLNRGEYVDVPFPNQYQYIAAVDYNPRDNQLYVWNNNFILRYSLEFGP
Briefly: ELISA.

A further series has as its target T2, LPHN2 Lec (Homo sapiens).
T2 chain: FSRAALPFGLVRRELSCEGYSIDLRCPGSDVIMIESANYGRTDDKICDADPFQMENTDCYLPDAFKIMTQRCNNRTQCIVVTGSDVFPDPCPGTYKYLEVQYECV
Briefly: ELISA.

In series [3] the target is LPHN2 ecto-full domain (human). Briefly: ELISA; solid-phase binding assay: LPHN2 extracellular domain variants (100 nM) coated on MaxiSorp 96-well plates, 1 h room temperature, blocked with 1% BSA; 0.001-10 μM LRG1 forms added; detected with anti-LRG1 antibody and peroxidase-conjugated secondary antibody.
Series [4] in a line: recombinant protein expression level. The settings on record: glycan lost; control: LRG1 WT.

B1: Leucine-rich α-2-glycoprotein 1 (LRG1), recombinant human, glycosylated (natural protein)
chain: VTLSPKDCQVFRSDHGSSISCQPPAEIPGYLPADTVHLAVEFFNLTHLPANLLQGASKLQELHLSSNGLESLSPEFLRPVPQLRVLDLTRNALTGLPPGLFQASATLDTLVLKENQLEVLEVSWLHGLKALGHLDLSGNRLRKLPPGLLANFTLLRTLDLGENQLETLPPDLLRGPLQLERLHLEGNKLQVLGKDLLLPQPDLRYLFLNGNKLARVAAGAFQGLRQLDMLDLSNNSLASVPEGLWASLGQPNWDMRDGFDISGNPWICDQNLSDLYRWLQAQKDKMFSQNDTRCAGPEAVKGQTLLAVAKSQ
modifications: N-linked glycans (N-acetylglucosamine seen in the crystal) at N79, N186, N269 and N325; Alexa 647-conjugated in the FACS assay
For B1, the Kd (in general, the concentration at which binding is half-saturated) in series [1] is 920 nM.

B2: Deglycosylated LRG1 (LRG1 treated with PNGase F) (natural protein)
chain: VTLSPKDCQVFRSDHGSSISCQPPAEIPGYLPADTVHLAVEFFNLTHLPANLLQGASKLQELHLSSNGLESLSPEFLRPVPQLRVLDLTRNALTGLPPGLFQASATLDTLVLKENQLEVLEVSWLHGLKALGHLDLSGNRLRKLPPGLLANFTLLRTLDLGENQLETLPPDLLRGPLQLERLHLEGNKLQVLGKDLLLPQPDLRYLFLNGNKLARVAAGAFQGLRQLDMLDLSNNSLASVPEGLWASLGQPNWDMRDGFDISGNPWICDQNLSDLYRWLQAQKDKMFSQNDTRCAGPEAVKGQTLLAVAKSQ
modifications: N-glycans removed by PNGase F; Alexa 647-conjugated in the FACS assay
Take B2: the Kd turned out to be 450 nM in series [2], 1100 nM with LPHN2 Lec, 450 nM in series [1] and 840 nM in series [3].

B3: leucine-rich α-2-glycoprotein 1 (LRG1): N79D (protein)
parent chain: MSSWSRQRPKSPGGIQPHVSRTLFLLLLLAASAWGVTLSPKDCQVFRSDHGSSISCQPPAEIPGYLPADTVHLAVEFFNLTHLPANLLQGASKLQELHLSSNGLESLSPEFLRPVPQLRVLDLTRNALTGLPPGLFQASATLDTLVLKENQLEVLEVSWLHGLKALGHLDLSGNRLRKLPPGLLANFTLLRTLDLGENQLETLPPDLLRGPLQLERLHLEGNKLQVLGKDLLLPQPDLRYLFLNGNKLARVAAGAFQGLRQLDMLDLSNNSLASVPEGLWASLGQPNWDMRDGFDISGNPWICDQNLSDLYRWLQAQKDKMFSQNDTRCAGPEAVKGQTLLAVAKSQ
With B3, the expression_or_secretion entry in series [4] is reported as “no change”.

B4: leucine-rich α-2-glycoprotein 1 (LRG1): N325D (protein)
parent chain: MSSWSRQRPKSPGGIQPHVSRTLFLLLLLAASAWGVTLSPKDCQVFRSDHGSSISCQPPAEIPGYLPADTVHLAVEFFNLTHLPANLLQGASKLQELHLSSNGLESLSPEFLRPVPQLRVLDLTRNALTGLPPGLFQASATLDTLVLKENQLEVLEVSWLHGLKALGHLDLSGNRLRKLPPGLLANFTLLRTLDLGENQLETLPPDLLRGPLQLERLHLEGNKLQVLGKDLLLPQPDLRYLFLNGNKLARVAAGAFQGLRQLDMLDLSNNSLASVPEGLWASLGQPNWDMRDGFDISGNPWICDQNLSDLYRWLQAQKDKMFSQNDTRCAGPEAVKGQTLLAVAKSQ
For the molecule B4, in series [4], the expression_or_secretion entry was “no change”.

B5: leucine-rich α-2-glycoprotein 1 (LRG1): N186D (protein)
parent chain: MSSWSRQRPKSPGGIQPHVSRTLFLLLLLAASAWGVTLSPKDCQVFRSDHGSSISCQPPAEIPGYLPADTVHLAVEFFNLTHLPANLLQGASKLQELHLSSNGLESLSPEFLRPVPQLRVLDLTRNALTGLPPGLFQASATLDTLVLKENQLEVLEVSWLHGLKALGHLDLSGNRLRKLPPGLLANFTLLRTLDLGENQLETLPPDLLRGPLQLERLHLEGNKLQVLGKDLLLPQPDLRYLFLNGNKLARVAAGAFQGLRQLDMLDLSNNSLASVPEGLWASLGQPNWDMRDGFDISGNPWICDQNLSDLYRWLQAQKDKMFSQNDTRCAGPEAVKGQTLLAVAKSQ
As to B5, the expression_or_secretion result in series [4] is “no change”.

B6: leucine-rich α-2-glycoprotein 1 (LRG1): N269D (protein)
parent chain: MSSWSRQRPKSPGGIQPHVSRTLFLLLLLAASAWGVTLSPKDCQVFRSDHGSSISCQPPAEIPGYLPADTVHLAVEFFNLTHLPANLLQGASKLQELHLSSNGLESLSPEFLRPVPQLRVLDLTRNALTGLPPGLFQASATLDTLVLKENQLEVLEVSWLHGLKALGHLDLSGNRLRKLPPGLLANFTLLRTLDLGENQLETLPPDLLRGPLQLERLHLEGNKLQVLGKDLLLPQPDLRYLFLNGNKLARVAAGAFQGLRQLDMLDLSNNSLASVPEGLWASLGQPNWDMRDGFDISGNPWICDQNLSDLYRWLQAQKDKMFSQNDTRCAGPEAVKGQTLLAVAKSQ
For B6, the expression_or_secretion entry in series [4] is listed as “no change”.
